Consider one molecule from patent US20190032033A1.

This test addresses β1AR-84 (minimally thermostabilised turkey β1 adrenergic receptor construct) (turkey), P07700. Description: cell-based or functional assay.

Chain of β1AR-84 (minimally thermostabilised turkey β1 adrenergic receptor construct) (turkey), P07700 (P07700 other isoform, or with tags, fused parts or gaps): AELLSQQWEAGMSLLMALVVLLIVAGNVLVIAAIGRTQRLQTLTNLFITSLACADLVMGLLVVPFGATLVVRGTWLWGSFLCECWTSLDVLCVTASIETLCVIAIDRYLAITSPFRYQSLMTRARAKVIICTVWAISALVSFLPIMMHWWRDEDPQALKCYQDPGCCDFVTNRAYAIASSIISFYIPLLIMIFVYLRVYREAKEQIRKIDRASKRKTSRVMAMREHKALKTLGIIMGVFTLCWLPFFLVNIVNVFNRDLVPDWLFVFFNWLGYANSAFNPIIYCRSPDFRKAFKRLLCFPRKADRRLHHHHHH

B1: Mini Gs393, P04896 26-394 (protein)
chain: GIEKQLQKDKQVYRATHRLLLLGADNSGKSTIVKQMRILHGGSGGSGGTSGIFETKFQVDKVNFHMFDVGGQRDERRKWIQCFNDVTAIIFVVDSSDYNRLQEALNDFKSIWNNRWLRTISVILFLNKQDLLAEKVLAGKSKIEDYFPEFARYTTPEDATPEPGEDPRVTRAKYFIRDEFLRISTASGDGRHYCYPHFTCAVDTENARRIFNDCRDIIQRMHLRQYELL
B1 showed an isoprenaline Ki of DDM-solubilised β1AR-84 (alone […] µM) of 0.0047 µM, an isoprenaline Ki of membrane-embedded β1AR-84 (alone […] µM) of 0.0036 µM and an isoprenaline Ki of β1AR-84 with 0.25 mM GTPγS (alone 3.0 µM) of 5.2 nM.
